Test [1] has as its target DNAJA1 (DJA1), His-tagged (UniProt P31689). As to the kind of experiment: ELISA; competition: 1 μM chaperone mixed with soluble peptide (titrated up to 100 μM, or fixed 100 μM in the screens) and bound to immobilised 1097-L; Kd of the competing peptide from linearised competition curves. On the technique in general: An ELISA detects its analyte on a solid surface through an enzyme-linked reagent.

For test [2], the target named is DNAJA2 (DJA2), His-tagged (UniProt O60884). The test is described as above.
Sequence of DNAJA2 (DJA2), His-tagged (UniProt O60884) (O60884 whole entry): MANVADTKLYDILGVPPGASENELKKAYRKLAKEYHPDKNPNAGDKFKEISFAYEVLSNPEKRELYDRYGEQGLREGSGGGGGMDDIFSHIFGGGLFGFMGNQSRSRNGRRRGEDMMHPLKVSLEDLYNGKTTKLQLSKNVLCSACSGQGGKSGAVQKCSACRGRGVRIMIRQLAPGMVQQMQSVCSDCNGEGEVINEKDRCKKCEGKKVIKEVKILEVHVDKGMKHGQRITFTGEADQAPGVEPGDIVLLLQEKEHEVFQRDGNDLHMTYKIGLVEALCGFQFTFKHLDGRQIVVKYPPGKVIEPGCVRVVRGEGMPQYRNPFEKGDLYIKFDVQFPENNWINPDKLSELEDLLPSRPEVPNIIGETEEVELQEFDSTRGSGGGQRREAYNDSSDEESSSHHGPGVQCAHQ
Test [3] deals with HSC70 (HSPA8), His-tagged (UniProt P11142). The description is as above.
Sequence of HSC70 (HSPA8), His-tagged (UniProt P11142) (P11142 whole entry): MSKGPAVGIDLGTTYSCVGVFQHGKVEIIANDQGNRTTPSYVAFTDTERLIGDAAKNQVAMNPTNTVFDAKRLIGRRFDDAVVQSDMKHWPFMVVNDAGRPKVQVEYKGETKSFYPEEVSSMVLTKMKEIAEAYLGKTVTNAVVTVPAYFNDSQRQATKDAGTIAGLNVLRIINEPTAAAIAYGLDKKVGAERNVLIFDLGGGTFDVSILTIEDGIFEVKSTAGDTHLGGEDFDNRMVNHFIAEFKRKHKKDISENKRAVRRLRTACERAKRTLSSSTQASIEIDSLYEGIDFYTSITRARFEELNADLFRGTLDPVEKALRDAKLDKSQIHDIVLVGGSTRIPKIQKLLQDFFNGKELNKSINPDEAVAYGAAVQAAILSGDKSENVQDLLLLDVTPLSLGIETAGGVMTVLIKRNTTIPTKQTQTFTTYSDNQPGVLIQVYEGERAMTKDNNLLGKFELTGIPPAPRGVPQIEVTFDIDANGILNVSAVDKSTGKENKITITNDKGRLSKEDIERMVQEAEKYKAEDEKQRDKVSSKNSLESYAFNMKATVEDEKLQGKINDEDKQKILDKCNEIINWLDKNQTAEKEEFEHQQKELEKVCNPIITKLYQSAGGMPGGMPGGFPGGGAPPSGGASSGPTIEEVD
For test [4], the target named is CFTR peptide 1097-L, biotinylated (library form) (UniProt P13569). As to the kind of experiment: ELISA; titration of increasing concentrations of chaperone on immobilised biotinylated peptide; HSC70 with ATP; apparent Kd from linearised binding curves.
Test [5] has as its target Fluorescent peptide FAM-1092-S (UniProt P13569). Description: other fluorescence titration; 0.5 μM FAM-1092-S with varying concentrations of chaperone, 45 min; HSC70 in buffer G, DJA1 and DJA2 in buffer H; excitation 492 nm, emission 520 nm; one site total binding fit.

What is called pKd is −log10 of the Kd, conventionally taken in molar units.

pKd: −log10 of the molar value.

Sequence of CFTR peptide 1092-S (P13569 whole entry, looked up, tested part not stated): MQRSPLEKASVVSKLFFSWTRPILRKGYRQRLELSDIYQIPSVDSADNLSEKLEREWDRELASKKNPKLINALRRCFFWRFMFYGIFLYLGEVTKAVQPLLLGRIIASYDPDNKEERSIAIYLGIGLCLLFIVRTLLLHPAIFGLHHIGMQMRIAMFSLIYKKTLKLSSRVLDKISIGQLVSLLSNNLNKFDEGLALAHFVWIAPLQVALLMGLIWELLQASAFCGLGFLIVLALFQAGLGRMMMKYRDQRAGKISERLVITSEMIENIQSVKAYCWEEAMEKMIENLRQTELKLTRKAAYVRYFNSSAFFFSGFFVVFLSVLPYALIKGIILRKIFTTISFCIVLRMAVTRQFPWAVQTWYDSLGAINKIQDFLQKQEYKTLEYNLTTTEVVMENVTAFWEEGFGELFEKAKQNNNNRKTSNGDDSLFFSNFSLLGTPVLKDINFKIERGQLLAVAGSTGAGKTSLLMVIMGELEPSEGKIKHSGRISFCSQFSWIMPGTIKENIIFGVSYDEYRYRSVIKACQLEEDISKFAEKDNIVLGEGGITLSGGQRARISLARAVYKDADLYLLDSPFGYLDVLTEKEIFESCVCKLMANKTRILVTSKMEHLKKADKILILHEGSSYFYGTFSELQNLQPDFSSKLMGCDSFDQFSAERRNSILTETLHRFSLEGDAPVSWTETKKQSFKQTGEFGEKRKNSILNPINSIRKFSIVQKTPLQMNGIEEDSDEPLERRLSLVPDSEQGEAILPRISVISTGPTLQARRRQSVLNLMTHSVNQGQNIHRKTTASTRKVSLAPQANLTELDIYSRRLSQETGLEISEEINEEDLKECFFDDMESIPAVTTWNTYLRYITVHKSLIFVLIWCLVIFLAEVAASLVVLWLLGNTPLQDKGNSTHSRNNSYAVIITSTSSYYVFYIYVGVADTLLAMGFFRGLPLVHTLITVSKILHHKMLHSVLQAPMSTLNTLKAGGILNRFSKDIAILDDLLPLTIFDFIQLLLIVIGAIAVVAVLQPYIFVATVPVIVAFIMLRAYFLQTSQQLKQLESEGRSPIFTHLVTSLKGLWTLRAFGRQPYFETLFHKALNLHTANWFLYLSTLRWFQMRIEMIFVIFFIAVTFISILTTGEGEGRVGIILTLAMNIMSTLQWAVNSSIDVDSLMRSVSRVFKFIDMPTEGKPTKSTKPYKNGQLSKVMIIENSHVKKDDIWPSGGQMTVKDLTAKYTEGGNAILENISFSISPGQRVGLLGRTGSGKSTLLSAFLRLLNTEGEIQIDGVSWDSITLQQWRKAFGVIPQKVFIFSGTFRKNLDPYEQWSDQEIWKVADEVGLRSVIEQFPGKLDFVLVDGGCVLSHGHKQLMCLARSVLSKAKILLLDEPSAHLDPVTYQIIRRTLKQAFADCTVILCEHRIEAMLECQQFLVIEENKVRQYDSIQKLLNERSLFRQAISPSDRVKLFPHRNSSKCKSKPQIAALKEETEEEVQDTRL
Sequence of Fluorescent peptide FAM-1092-S (P13569 whole entry, looked up, tested part not stated): as above
Sequence of HSC70 (HSPA8), His-tagged (from UniProt P11142 1-646) (natural protein) (P11142 whole entry): as the sequence (P11142 whole entry) above
Sequence of DNAJA2 (DJA2), His-tagged (from UniProt O60884 1-412) (natural protein) (O60884 whole entry): as the sequence (O60884 whole entry) above

Consider “CFTR peptide 1092-S (from UniProt P13569 1088-1096)”, for which the pKd in test [1] was 5.26; in test [2], 5.58; in test [3], 5.90.

As to “CFTR peptide 1097-L, soluble unmodified (from UniProt P13569 1090-1104)”, the values for the pKd in test [1], in test [2] and in test [3] were 5.61, 6.23 and 6.22, respectively.

Turning to “DNAJA1 (DJA1), His-tagged (from UniProt P31689 1-397) (natural protein)”, the figures for the pKd in test [4] and in test [5] were 6.78 and 5.40, respectively.

Take “DNAJA2 (DJA2), His-tagged (from UniProt O60884 1-412) (natural protein)”: the pKd was 7.12 in test [4] and 5.07 in test [5].

For the substance “HSC70 (HSPA8), His-tagged (from UniProt P11142 1-646) (natural protein)”, the negative-log Kd (pKd) in test [4] was 7.24; in test [5], 5.21.

These data come from article PMC7060200, “Selective Binding of HSC70 and its Co-Chaperones to Structural Hotspots on CFTR” (Scientific Reports, 2020).
